Here are results for 27 molecules from patent publication US20260139055A1.

To fix the notation:
B1: canine IgGB (65) mAb with mutation A426P (antibody, part only; not given: Variable domains, not shown: another chain or arm of the molecule)
constant: ASTTAPSVFPLAPSCGSTSGSTVALACLVSGYFPEPVTVSWNSGSLTSGVHTFPSVLQSSGLYSLSSMVTVPSSRWPSETFTCNVAHPASKTKVDKPVPKRENGRVPRPPDCPKCPAPEMLGGPSVFIFPPKPKDTLLIARTPEVTCVVVDLDPEDPEVQISWFVDGKQMQTAKTQPREEQFNGTYRVVSVLPIGHQDWLKGKQFTCKVNNKALPSPIERTISKARGQAHQPSVYVLPPSREELSKNTVSLTCLIKDFFPPDIDVEWQSNGQQEPESKYRTTPPQLDEDGSYFLYSKLSVDKSRWQRGDTFICPVMHEALHNHYTQESLSHSPGK
B2: canine IgGB (65) mAb with mutation A426T (antibody, part only; not given: variable domains of unnamed mAb, not shown: another chain or arm of the molecule)
constant: B1 constant with P314T
B3: canine IgGB (65) mAb with mutation T286K (antibody, part only; not given: Variable domains, not shown: another chain or arm of the molecule)
constant: B1 constant with T172K, P314A
B4: canine IgGB (65) mAb with mutation A426W (antibody, part only; not given: variable domains of unnamed mAb, not shown: another chain or arm of the molecule)
constant: B1 constant with P314W
B5: canine IgGB (65) mAb with mutation Y436P (antibody, part only; not given: variable domains of unnamed mAb, not shown: another chain or arm of the molecule)
constant: B1 constant with P314A, Y324P
B6: canine IgGB (65) mAb with mutation Y436Q (antibody, part only; not given: Variable domains, not shown: another chain or arm of the molecule)
constant: B1 constant with P314A, Y324Q
B7: canine IgGB (65) mAb with mutation A426V (antibody, part only; not given: Variable domains, not shown: another chain or arm of the molecule)
constant: B1 constant with P314V
B8: canine IgGB (65) mAb with mutation T286I (antibody, part only; not given: Variable domains, not shown: another chain or arm of the molecule)
constant: B1 constant with T172I, P314A
B9: canine IgGB (65) mAb with mutation Y436F (antibody, part only; not given: Variable domains, not shown: another chain or arm of the molecule)
constant: B1 constant with P314A, Y324F
B10: canine IgGB (65) mAb with mutation Y436R (antibody, part only; not given: Variable domains, not shown: another chain or arm of the molecule)
constant: B1 constant with P314A, Y324R
B11: canine IgGB (65) mAb with mutation A426Q (antibody, part only; not given: variable domains of unnamed mAb, not shown: another chain or arm of the molecule)
constant: B1 constant with P314Q
B12: canine IgGB (65) mAb with mutation Y436T (antibody, part only; not given: Variable domains, not shown: another chain or arm of the molecule)
constant: B1 constant with P314A, Y324T
B13: canine IgGB (65) mAb with mutation Y436D (antibody, part only; not given: Variable domains, not shown: another chain or arm of the molecule)
constant: B1 constant with P314A, Y324D
B14: canine IgGB (65) mAb with mutation Y436K (antibody, part only; not given: variable domains of unnamed mAb, not shown: another chain or arm of the molecule)
constant: B1 constant with P314A, Y324K
B15: canine IgGB (65) mAb with mutation Y436W (antibody, part only; not given: variable domains of unnamed mAb, not shown: another chain or arm of the molecule)
constant: B1 constant with P314A, Y324W
B16: canine IgGB (65) mAb with mutation Y436M (antibody, part only; not given: Variable domains, not shown: another chain or arm of the molecule)
constant: B1 constant with P314A, Y324M
B17: canine IgGB (65) mAb with mutation Y436E (antibody, part only; not given: Variable domains, not shown: another chain or arm of the molecule)
constant: B1 constant with P314A, Y324E
B18: canine IgGB (65) mAb with mutation Y436C (antibody, part only; not given: Variable domains, not shown: another chain or arm of the molecule)
constant: B1 constant with P314A, Y324C
B19: canine IgGB (65) mAb with mutation A426S (antibody, part only; not given: Variable domains, not shown: another chain or arm of the molecule)
constant: B1 constant with P314S
B20: canine IgGB (65) mAb with mutation T286M (antibody, part only; not given: variable domains of unnamed mAb, not shown: another chain or arm of the molecule)
constant: B1 constant with T172M, P314A
B21: canine IgGB (65) mAb with mutation Y436V (antibody, part only; not given: variable domains of unnamed mAb, not shown: another chain or arm of the molecule)
constant: B1 constant with P314A, Y324V
B22: canine IgGB (65) mAb with mutation Y436I (antibody, part only; not given: variable domains of unnamed mAb, not shown: another chain or arm of the molecule)
constant: B1 constant with P314A, Y324I
B23: canine IgGB (65) mAb with mutation Y436G (antibody, part only; not given: Variable domains, not shown: another chain or arm of the molecule)
constant: B1 constant with P314A, Y324G
B24: canine IgGB (65) mAb with mutation Y436S (antibody, part only; not given: variable domains of unnamed mAb, not shown: another chain or arm of the molecule)
constant: B1 constant with P314A, Y324S
B25: canine IgGB (65) mAb with mutation Y436N (antibody, part only; not given: variable domains of unnamed mAb, not shown: another chain or arm of the molecule)
constant: B1 constant with P314A, Y324N
B26: canine IgGB (65) mAb with mutation Y436L (antibody, part only; not given: variable domains of unnamed mAb, not shown: another chain or arm of the molecule)
constant: B1 constant with P314A, Y324L
B27: canine IgGB (65) mAb with mutation A426R (antibody, part only; not given: variable domains of unnamed mAb, not shown: another chain or arm of the molecule)
constant: B1 constant with P314R

Residue numbers refer to the chain shown, from its start. In names and notes the source's numbering stands.

For orientation: Kd means the concentration at which binding is half-saturated. High values mean weaker binding, low ones tighter binding.

The assay has as its target canine FcRn complex (FcRn-alpha subunit and beta-microglobulin), His-tagged, biotin labeled (canine). Briefly: SPR (Biacore), biotin-FcRn captured on SA surface, IgG flowed over, pH 6, 15 C. (SPR reads the build-up and loss of mass on a sensor chip optically.)
Regarding B1, the dissociation constant Kd worked out at 23.7 nM.
Molecule B2 returned a Kd of 8.72 nM.
The same measure for B3: 7.04 nM.
Regarding B4, the dissociation constant (Kd) turned out to be 3.87 nM.
Then B5, with 668 nM.
Then B6, with 4.74 nM; and B7, with 9.11 nM; and B8, with 6.38 nM.
B9: the Kd stood at 9.8 nM.
Then B10, with 3.83 nM.
Then B11, with 8.41 nM; and B12, with 8.65 nM; and B13, with 12.9 nM.
Then B14, with 6.88 nM.
B15 displayed a Kd of 3.87 nM.
Then B16, with 9.51 nM; and B17, with 5.28 nM.
B18 returned a dissociation constant Kd of 8.84 nM.
The same measure for B19: 11.9 nM; for B20: 5.23 nM; for B21: 5.56 nM.
The same measure for B22: 8.41 nM; for B23: 9.67 nM; for B24: 5.97 nM.
B25 had a Kd of 7.27 nM.
B26: the Kd worked out at 4.26 nM.
Then B27, with 4.23 nM.
